Measured values from the supplement of paper PMC10219994.
± gives the standard deviation of the averaged measurements.

B1: library; a variant is named by its letters at N, in order (parent)
chain: GAGACCGCAACTGAAAAGTTGTGGNNNNNATAGTGAGTCGCTGCCTGCAAAGACACAACT

Variants of: B1
Assay: ligation selection enrichment (abundance after / before one-round selection) (fold); higher = more template-directed ligation activity
Settings: with T7Psub CACGGAUGCUAAUACGACUCACUAUA; MgCl2 25 mM; 42 °C; 4 h; pH 8.5
Description: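 Lib-N5 ligase ribozyme library: five randomized core nucleotides (including the GGA motif of N8-1) within the fixed N8-1 ribozyme flanks, transcribed by T7 RNA polymerase with a 5'-triphosphate. The library (0.75 uM) was reacted with substrate T7Psub (6 uM) in 50 mM EPPS pH 8.5 with 25 mM MgCl2 at 42 C for 4 h. Ligated products were PAGE-purified, reverse transcribed and MiSeq sequenced; enrichment = abundance after selection / abundance before selection, with two independent replicates. The full transcript is built from the printed template flanks.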

First: TCAAG
Second: TCAAT
The ligation selection enrichment of the first is lower: 0.718 ± 0.12 for the first, 6.44 ± 2.6 for the second.

First: TCAAC
Second: TCAAA
The ligation selection enrichment of the first is higher: 0.48 ± 0.05 for the first, 0.317 ± 0.039 for the second.

Compared with CATTC, CATTT is higher in ligation selection enrichment: 0.152 ± 0.013 for the first, 0.539 ± 0.13 for the second.

Compared with CATTA, CATTG is higher in ligation selection enrichment: 0.16 ± 0.038 for the first, 1.24 ± 0.22 for the second.

Going from CCCGT to CCCGA, the ligation selection enrichment rises from 0.207 ± 0.059 to 0.405 ± 0.013.

Going from CCCGC to CCCGG, the ligation selection enrichment rises from 0.163 ± 0.053 to 0.327 ± 0.049.

CCAAC and CCAAA are within error of each other in ligation selection enrichment: 0.217 ± 0.026 for the first, 0.162 ± 0.034 for the second.

Compared with CCAAG, CCAAT is higher in ligation selection enrichment: 0.349 ± 0.024 for the first, 3.42 ± 0.96 for the second.

Compared with TCCGA, TCCGG is lower in ligation selection enrichment: 0.205 ± 0.034 for the first, 0.133 ± 0.0031 for the second.

TCCGT and TCCGC are within error of each other in ligation selection enrichment: 0.123 ± 0.096 for the first, 0.113 ± 0.026 for the second.

Going from GCGGA to AACCG, the ligation selection enrichment rises from 0.334 ± 0.035 to 0.526 ± 0.039.

Compared with AACCT, CCACC is lower in ligation selection enrichment: 0.845 ± 0.39 for the first, 0.0951 ± 0.0078 for the second.

First: CCACA
Second: CCACT
The ligation selection enrichment of the first is lower: 0.0899 ± 0.017 for the first, 0.416 ± 0.15 for the second.

Compared with CCACG, TCCAG is lower in ligation selection enrichment: 0.415 ± 0.075 for the first, 0.128 ± 0.027 for the second.

First: TCCAA
Second: TCCAT
The ligation selection enrichment of the first is lower: 0.0717 ± 0.015 for the first, 0.303 ± 0.096 for the second.

TCCAC and TAGTA are within error of each other in ligation selection enrichment: 0.118 ± 0.043 for the first, 0.19 ± 0.055 for the second.

First: TAGTT
Second: TAGTG
The ligation selection enrichment of the first is lower: 0.218 ± 0.078 for the first, 0.6007 ± 0.0042 for the second.

Going from TAGTC to CCGAC, the ligation selection enrichment rises from 0.182 ± 0.044 to 1.37 ± 0.061.

Compared with CCGAT, CCGAA is lower in ligation selection enrichment: 15.8 ± 4.6 for the first, 0.831 ± 0.069 for the second.

Going from CCGAG to ACGGA, the ligation selection enrichment falls from 0.853 ± 0.037 to 0.204 ± 0.033.

Going from ACGGC to TACGA, the ligation selection enrichment rises from 0.122 ± 0.01 to 1.32 ± 0.13.

Compared with TACGT, TACGG is higher in ligation selection enrichment: 0.169 ± 0.044 for the first, 0.379 ± 0.026 for the second.

TACGC and CACCG are within error of each other in ligation selection enrichment: 0.1908 ± 0.0012 for the first, 0.217 ± 0.047 for the second.

CACCT and CCATT are within error of each other in ligation selection enrichment: 0.334 ± 0.14 for the first, 0.223 ± 0.041 for the second.

CCATC and CCATA are within error of each other in ligation selection enrichment: 0.121 ± 0.0018 for the first, 0.14 ± 0.025 for the second.

Going from CCATG to GCATG, the ligation selection enrichment rises from 0.166 ± 0.043 to 0.335 ± 0.012.

Going from GCATA to GCATC, the ligation selection enrichment falls from 0.204 ± 0.0065 to 0.168 ± 0.016.

Going from GCATT to CCCCC, the ligation selection enrichment falls from 0.257 ± 0.043 to 0.199 ± 0.004.

CCCCT and CCCCG are within error of each other in ligation selection enrichment: 0.419 ± 0.21 for the first, 0.49 ± 0.0033 for the second.

CCCCA and ACCAA are within error of each other in ligation selection enrichment: 0.14 ± 0.0052 for the first, 0.144 ± 0.0063 for the second.

Going from ACCAT to ACCAC, the ligation selection enrichment falls from 0.866 ± 0.31 to 0.165 ± 0.0072.

First: ACCAG
Second: AATCC
The ligation selection enrichment of the first is lower: 0.207 ± 0.033 for the first, 0.358 ± 0.014 for the second.

Compared with AATCG, AATCT is lower in ligation selection enrichment: 0.816 ± 0.11 for the first, 0.451 ± 0.12 for the second.

Going from AATCA to CACTA, the ligation selection enrichment falls from 0.454 ± 0.023 to 0.157 ± 0.041.

CACTC and CACTT are within error of each other in ligation selection enrichment: 0.0626 ± 0.02 for the first, 0.105 ± 0.047 for the second.

Compared with CACTG, CATAT is higher in ligation selection enrichment: 0.286 ± 0.0061 for the first, 1.2 ± 0.084 for the second.

Compared with CATAA, CATAG is higher in ligation selection enrichment: 0.159 ± 0.023 for the first, 0.237 ± 0.014 for the second.

CATAC and TAGCA are within error of each other in ligation selection enrichment: 0.183 ± 0.029 for the first, 0.21 ± 0.016 for the second.

TAGCG and TAGCT are within error of each other in ligation selection enrichment: 0.52 ± 0.11 for the first, 0.547 ± 0.17 for the second.

Going from TAGCC to GCAAG, the ligation selection enrichment rises from 0.16 ± 0.02 to 0.562 ± 0.043.

Going from GCAAC to GCAAT, the ligation selection enrichment rises from 0.281 ± 0.015 to 4.77 ± 1.7.

Going from GCAAA to AACGA, the ligation selection enrichment rises from 0.304 ± 0.025 to 0.673 ± 0.067.

AACGT and AACGC are within error of each other in ligation selection enrichment: 0.167 ± 0.013 for the first, 0.197 ± 0.017 for the second.

AACGG and CAGAG are within error of each other in ligation selection enrichment: 0.32 ± 0.045 for the first, 0.399 ± 0.09 for the second.

Going from CAGAC to CAGAT, the ligation selection enrichment rises from 0.374 ± 0.044 to 9.36 ± 2.

Compared with CAGAA, CATGG is lower in ligation selection enrichment: 0.343 ± 0.0039 for the first, 0.226 ± 0.027 for the second.

First: CATGT
Second: CATGA
The ligation selection enrichment of the first is lower: 0.109 ± 0.064 for the first, 0.381 ± 0.068 for the second.

First: CATGC
Second: GAGTT
The ligation selection enrichment of the first is lower: 0.1307 ± 0.00014 for the first, 0.235 ± 0.074 for the second.

Compared with GAGTC, GAGTG is higher in ligation selection enrichment: 0.168 ± 0.0064 for the first, 0.274 ± 0.035 for the second.

GAGTA and GACTT are within error of each other in ligation selection enrichment: 0.27 ± 0.053 for the first, 0.157 ± 0.075 for the second.

Compared with GACTG, GACTA is lower in ligation selection enrichment: 0.762 ± 0.055 for the first, 0.161 ± 0.026 for the second.

First: GACTC
Second: GACCT
The ligation selection enrichment of the first is lower: 0.111 ± 0.037 for the first, 0.584 ± 0.26 for the second.

First: ACAGC
Second: ACAGG
The ligation selection enrichment of the first is lower: 0.135 ± 0.011 for the first, 0.217 ± 0.025 for the second.

Compared with ACAGT, ACAGA is higher in ligation selection enrichment: 0.175 ± 0.012 for the first, 0.307 ± 0.022 for the second.

Compared with ACCTA, ACCTG is higher in ligation selection enrichment: 0.18 ± 0.017 for the first, 0.4917 ± 0.0012 for the second.

ACCTC and ACCTT are within error of each other in ligation selection enrichment: 0.0933 ± 0.036 for the first, 0.117 ± 0.004 for the second.

Going from GCCCT to GCCCA, the ligation selection enrichment falls from 0.424 ± 0.17 to 0.209 ± 0.023.

First: GCCCC
Second: GCCCG
The ligation selection enrichment of the first is lower: 0.227 ± 0.022 for the first, 0.803 ± 0.034 for the second.

First: TATGG
Second: TATGT
The ligation selection enrichment of the first is higher: 0.616 ± 0.093 for the first, 0.135 ± 0.031 for the second.

Going from TATGA to TATGC, the ligation selection enrichment falls from 2.32 ± 0.16 to 0.29 ± 0.026.

First: AAGAC
Second: AAGAA
The ligation selection enrichment of the first is higher: 0.661 ± 0.019 for the first, 0.428 ± 0.044 for the second.

Compared with AAGAT, AAGAG is lower in ligation selection enrichment: 16.6 ± 5 for the first, 0.632 ± 0.085 for the second.

Going from CAGTA to CAGTG, the ligation selection enrichment rises from 0.14 ± 0.0029 to 0.185 ± 0.004.

Compared with CAGTC, CAGTT is higher in ligation selection enrichment: 0.125 ± 0.019 for the first, 0.238 ± 0.0081 for the second.

Compared with TCAGT, TCAGA is higher in ligation selection enrichment: 0.161 ± 0.087 for the first, 0.474 ± 0.043 for the second.

Compared with TCAGC, TCAGG is higher in ligation selection enrichment: 0.153 ± 0.017 for the first, 0.337 ± 0.062 for the second.

Going from GCAGC to GCAGG, the ligation selection enrichment rises from 0.14 ± 0.021 to 0.189 ± 0.024.

First: GCAGA
Second: GCAGT
The ligation selection enrichment of the first is higher: 0.363 ± 0.026 for the first, 0.0918 ± 0.00069 for the second.

Compared with ACCGT, ACCGG is higher in ligation selection enrichment: 0.232 ± 0.081 for the first, 0.409 ± 0.0084 for the second.

Going from ACCGA to ACCGC, the ligation selection enrichment falls from 0.379 ± 0.054 to 0.182 ± 0.016.

Going from CCGGC to CCGGA, the ligation selection enrichment rises from 0.1797 ± 0.00074 to 0.278 ± 0.019.

Compared with GATGA, GATGT is lower in ligation selection enrichment: 0.606 ± 0.077 for the first, 0.126 ± 0.036 for the second.

First: GATGC
Second: GATGG
The ligation selection enrichment of the first is lower: 0.247 ± 0.024 for the first, 0.46 ± 0.1 for the second.

Compared with CACGG, CACGA is higher in ligation selection enrichment: 0.242 ± 0.057 for the first, 0.471 ± 0.005 for the second.

CACGC and CACGT are within error of each other in ligation selection enrichment: 0.163 ± 0.014 for the first, 0.156 ± 0.046 for the second.

TCGGA and TCGGC are within error of each other in ligation selection enrichment: 0.233 ± 0.022 for the first, 0.232 ± 0.01 for the second.

First: AATTT
Second: AATTC
The ligation selection enrichment of the first is higher: 0.624 ± 0.11 for the first, 0.201 ± 0.075 for the second.

Going from AATTA to AATTG, the ligation selection enrichment rises from 0.421 ± 0.03 to 1.46 ± 0.055.

TACTT and TACTC are within error of each other in ligation selection enrichment: 0.0933 ± 0.018 for the first, 0.103 ± 0.036 for the second.

First: TACTA
Second: TACTG
The ligation selection enrichment of the first is lower: 0.168 ± 0.08 for the first, 0.641 ± 0.095 for the second.

AAGCC and AAGCA are within error of each other in ligation selection enrichment: 0.188 ± 0.021 for the first, 0.236 ± 0.065 for the second.

AAGCG and AAGCT are within error of each other in ligation selection enrichment: 1.09 ± 0.27 for the first, 0.56 ± 0.29 for the second.

First: AAGTA
Second: AAGTC
The ligation selection enrichment of the first is higher: 0.24 ± 0.059 for the first, 0.146 ± 0.018 for the second.

In the case of AAGTG, the ligation selection enrichment is reported as 0.294 ± 0.021.
